Data taken from the supplement of paper PMC10126150.
± gives the standard deviation of the averaged measurements.

Tested on: ATP
Assay: switch fluorescence ratio, 500 uM ATP over buffer (Cy3 cluster intensity, sum of 5 cycles each) (fold (ratio)); higher = stronger signal-on switching upon ATP binding; sequences stand for … in TCGTCGGCAGCGTCAGATGTGTATAAGAGACAGTTTTTTTTTTTTTTTTTTTTTTTTT…TC
Settings: aptamer strand: ATP DNA aptamer (quencher-CACCTGGGGGAGTATTGCGGAGGAAGG + anchor), 100 nM annealed; ATP concentration: 500 uM
Method in brief: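 After annealing to 100 nM quencher-labelled ATP aptamer, Cy3-labelled switching-strand clusters on a modified Illumina MiSeq flow-cell were imaged in selection buffer. A second image followed after 15 min with 500 uM ATP at 22 °C, and five such buffer/ATP cycles were done, each separated by NaOH stripping and re-annealing. The fluorescence ratio, averaged per switch-domain sequence, is summed target-cycle over summed buffer-cycle Cy3 intensity per cluster, with clusters outside 100-1000 RFU excluded.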
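Note: ATP exposure 15 min at 22 °C before imaging.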

| Sequence | switch fluorescence ratio |
| --- | --- |
| GGGGATTATA | 1.01 ± 0.015 |
| GGGGATTTGA | 0.995 ± 0.029 |
| GGGGATTTGG | 0.992 ± 0.018 |
| GGGGCAAAAA | 1.08 ± 0.12 |
| GGGGCAACGT | 0.983 ± 0.012 |
| GGGGCAATTT | 1.04 ± 0.052 |
| GGGGCACCTC | 1.04 ± 0.015 |
| GGGGCAGCCA | 1.03 ± 0.038 |
| GGGGCAGGCT | 0.886 ± 0.18 |
| GGGGCAGGTA | 1.04 ± 0.047 |
| GGGGCATGCA | 0.9897 ± 0.0081 |
| GGGGCATGGA | 0.95 ± 0.018 |
| GGGGCATGGT | 1.01 ± 0.018 |
| GGGGCCAAAA | 0.947 ± 0.11 |
| GGGGCCAGAA | 1.012 ± 0.0029 |
| GGGGCCCCTC | 1.04 ± 0.092 |
| GGGGCCGAGA | 0.987 ± 0.012 |
| GGGGCCGTTG | 0.949 ± 0.012 |
| GGGGCGGGGT | 1.01 ± 0.018 |
| GGGGCGGGTA | 1 ± 0.078 |
| GGGGCGGTGG | 1.036 ± 0.0062 |
| GGGGCGGTTT | 1.01 ± 0.046 |
| GGGGCGTAGG | 1 ± 0.033 |

| Sequence | switch fluorescence ratio |
| --- | --- |
| GGGGCGTGTG | 1.01 ± 0.014 |
| GGGGCTATAA | 1.11 ± 0.067 |
| GGGGCTATCC | 1.01 ± 0.036 |
| GGGGCTCACG | 0.985 ± 0.029 |
| GGGGCTTATT | 0.975 ± 0.029 |
| GGGGCTTTTG | 0.98 ± 0.04 |
| GGGGGAAAAA | 0.998 ± 0.059 |
| GGGGGAAATA | 0.9815 ± 0.0055 |
| GGGGGAAATG | 0.994 ± 0.029 |
| GGGGGAAATT | 1.03 ± 0.015 |
| GGGGGAACCA | 0.9993 ± 0.0072 |
| GGGGGAATCA | 0.9748 ± 0.0039 |
| GGGGGACTAT | 1.03 ± 0.023 |
| GGGGGACTTT | 1.08 ± 0.08 |
| GGGGGAGAAT | 0.986 ± 0.025 |
| GGGGGAGAGC | 1.03 ± 0.043 |
| GGGGGAGATA | 1 ± 0.025 |
| GGGGGAGATT | 0.977 ± 0.02 |
| GGGGGAGCGA | 0.98 ± 0.059 |
| GGGGGAGCTG | 0.978 ± 0.019 |
| GGGGGAGGAG | 0.996 ± 0.013 |
| GGGGGAGTTG | 0.982 ± 0.044 |
| GGGGGATAAG | 1 ± 0.028 |

| Sequence | switch fluorescence ratio |
| --- | --- |
| GGGGGATAGA | 1.03 ± 0.034 |
| GGGGGATCTC | 1.01 ± 0.021 |
| GGGGGCAAAA | 1.03 ± 0.025 |
| GGGGGCAAAT | 0.9935 ± 0.0068 |
| GGGGGCAACG | 1.03 ± 0.1 |
| GGGGGCAACT | 0.997 ± 0.017 |
| GGGGGCAGCA | 1.01 ± 0.04 |
| GGGGGCATTT | 1 ± 0.031 |
| GGGGGCCATA | 1.14 ± 0.18 |
| GGGGGCCCGA | 0.9925 ± 0.0076 |
| GGGGGCCGCT | 1.02 ± 0.036 |
| GGGGGCCGGT | 1.01 ± 0.058 |
| GGGGGCCGTT | 0.977 ± 0.058 |
| GGGGGCCTTA | 1.01 ± 0.047 |
| GGGGGCGCAT | 0.96 ± 0.066 |
| GGGGGCGCGA | 1.02 ± 0.035 |
| GGGGGCGGAG | 0.992 ± 0.024 |
| GGGGGCGGAT | 0.992 ± 0.024 |
| GGGGGCGTTA | 1.02 ± 0.026 |
| GGGGGCTCTG | 0.999 ± 0.028 |
| GGGGGCTGTT | 1 ± 0.014 |
| GGGGGCTTTG | 0.978 ± 0.023 |
| GGGGGGACGT | 1.02 ± 0.035 |

| Sequence | switch fluorescence ratio |
| --- | --- |
| GGGGGGAGG | 1.1 ± 0.13 |
| GGGGGGAGGA | 1.01 ± 0.056 |
| GGGGGGATAC | 1.7 ± 0.61 |
| GGGGGGATCG | 0.9791 ± 0.008 |
| GGGGGGATCT | 1.004 ± 0.0098 |
| GGGGGGATGC | 1.07 ± 0.13 |
| GGGGGGATGT | 0.993 ± 0.027 |
| GGGGGGCACC | 0.994 ± 0.021 |
| GGGGGGCCGT | 0.957 ± 0.025 |
| GGGGGGCGCT | 0.992 ± 0.018 |
| GGGGGGCGGG | 1.03 ± 0.051 |
| GGGGGGCTGA | 0.982 ± 0.018 |
| GGGGGGGAAT | 1 ± 0.045 |
| GGGGGGGATC | 1.02 ± 0.045 |
| GGGGGGGCGT | 0.996 ± 0.032 |
| GGGGGGGG | 0.994 ± 0.043 |
| GGGGGGGGAC | 1.02 ± 0.071 |
| GGGGGGGGGG | 1.02 ± 0.068 |
| GGGGGGGTC | 0.979 ± 0.019 |
| GGGGGGGTCG | 0.983 ± 0.048 |
| GGGGGGGTG | 1.04 ± 0.013 |
| GGGGGGGTGC | 1.02 ± 0.049 |
| GGGGGGTAAC | 1 ± 0.019 |

| Sequence | switch fluorescence ratio |
| --- | --- |
| GGGGGGTCGT | 1 ± 0.05 |
| GGGGGGTCTT | 1.01 ± 0.025 |
| GGGGGGTT | 0.9904 ± 0.005 |
| GGGGGGTTAC | 1.42 ± 1 |
| GGGGGGTTAG | 0.991 ± 0.029 |
| GGGGGGTTCC | 1.02 ± 0.044 |
| GGGGGTACTG | 0.965 ± 0.028 |
| GGGGGTAGAG | 0.988 ± 0.015 |
| GGGGGTAGGA | 1.02 ± 0.038 |
| GGGGGTAGGT | 0.985 ± 0.036 |
| GGGGGTATCG | 0.967 ± 0.021 |
| GGGGGTCACT | 0.993 ± 0.026 |
| GGGGGTCGAC | 0.996 ± 0.043 |
| GGGGGTCTTA | 0.9974 ± 0.0063 |
| GGGGGTGCTG | 0.993 ± 0.025 |
| GGGGGTGCTT | 1.03 ± 0.056 |
| GGGGGTGTCT | 0.99 ± 0.034 |
| GGGGGTTACC | 0.988 ± 0.02 |
| GGGGGTTCTT | 1.01 ± 0.049 |
| GGGGGTTGAA | 1 ± 0.029 |
| GGGGGTTTCG | 0.999 ± 0.036 |
| GGGGTAAATC | 1.01 ± 0.024 |
| GGGGTAAGAG | 1.019 ± 0.0038 |

| Sequence | switch fluorescence ratio |
| --- | --- |
| GGGGTAAGTA | 0.986 ± 0.027 |
| GGGGTAAGTT | 0.989 ± 0.035 |
| GGGGTACAGG | 1.005 ± 0.0055 |
| GGGGTACGAG | 1.02 ± 0.033 |
| GGGGTAGGCG | 0.959 ± 0.051 |
| GGGGTAGTG | 1.03 ± 0.067 |
| GGGGTATCCA | 1.03 ± 0.03 |
| GGGGTATCTT | 1.04 ± 0.017 |
| GGGGTATGAG | 0.972 ± 0.029 |
| GGGGTATTGC | 1.004 ± 0.0076 |
| GGGGTATTTG | 0.99 ± 0.012 |
| GGGGTCAACG | 0.963 ± 0.035 |
| GGGGTCATTT | 0.979 ± 0.027 |
| GGGGTCCTGG | 0.943 ± 0.022 |
| GGGGTCGGGA | 0.999 ± 0.011 |
| GGGGTCGGGT | 0.99 ± 0.012 |
| GGGGTCGTGT | 0.992 ± 0.023 |
| GGGGTCGTTC | 0.99 ± 0.028 |
| GGGGTGAAAT | 1 ± 0.018 |
| GGGGTGAGCA | 0.976 ± 0.029 |
| GGGGTGAGTG | 1.02 ± 0.045 |
| GGGGTGCCAG | 0.963 ± 0.058 |
| GGGGTGCGTG | 0.984 ± 0.045 |

| Sequence | switch fluorescence ratio |
| --- | --- |
| GGGGTGCTG | 1.02 ± 0.036 |
| GGGGTGCTTG | 0.988 ± 0.026 |
| GGGGTGGGTA | 0.998 ± 0.028 |
| GGGGTGGTCG | 0.986 ± 0.083 |
| GGGGTGTGGT | 0.998 ± 0.038 |
| GGGGTTAACT | 0.975 ± 0.022 |
| GGGGTTAGAA | 0.984 ± 0.0077 |
| GGGGTTCAAA | 0.997 ± 0.016 |
| GGGGTTCATT | 1.01 ± 0.04 |
| GGGGTTCC | 0.998 ± 0.0092 |
| GGGGTTCCTC | 0.9919 ± 0.0096 |
| GGGGTTGACG | 0.964 ± 0.059 |
| GGGGTTGGGT | 1.03 ± 0.026 |
| GGGGTTGGTA | 1.005 ± 0.006 |
| GGGGTTGTAG | 0.993 ± 0.047 |
| GGGGTTGTGA | 1.01 ± 0.022 |
| GGGGTTTACA | 0.989 ± 0.026 |
| GGGGTTTCTT | 0.987 ± 0.048 |
| GGGGTTTGAA | 0.984 ± 0.016 |
